Assay results taken from patent publication US20150297694A1, “CANCER DIAGNOSTIC AND THERAPEUTIC METHOD TARGETING MOLECULES EXPRESSED IN CANCER STEM CELLS” (NIIGATA UNIVERSITY, priority 2012, published 2015).

What was measured:
[1] = tested on: CD3-positive T cells from peripheral blood; experiment: Detection of DDX3X-responding IFN-γ-producing T cells in peripheral blood (co-culture with DDX3X-pulsed dendritic cells, ELISA); assay type: cell-based, human; design: key to DDX3X-specific T cell: “Yes” means detection of DDX3X-specific T cells in blood; “No” means no detection of DDX3X-specific T cells in blood; details: for DDX3X-specific T cell: DC pulsed with DDX3X 3.3 μg/ml, co-culture 24 hours, IFN-γ
Method: Peripheral blood (15 ml) was collected after informed consent. A mononulclear cell fraction was collected by density-gradient centrifugation using Lymphoprep(trade name) (Cosmo Bio), and CD14^+ cells were isolated with CD14 microbeads and autoMACS. The CD14^+ cells were cultured with rhGM-CSF (1 ng/ml, a gift from Kirin) and rhIL-4 (10 ng/ml, R&D systems), and differentiated into dendritic cells by day 5. The dendritic cells were cultured overnight in medium containing synthesized DDX3X protein (3.3 μg/ml) or the same concentration of OVA, and CD11c-positive cells purified with CD11c microbeads and autoMACS were used as antigen-presenting cells. In order to remove naive T cells and regulatory T cells from the CD14 fraction cells, CD62L^high cells were removed by using anti-CD62L antibody (1H3)-conjugated Dynabeads. The CD62L^low CD14^− cells were cultured for 48 hours on a BD BioCoat(trade name) T cell activation plate (Becton Dickinson), and cultured for 4 days in medium containing 20 U/ml of rhIL-2 (a gift from Shionogi). FACS confirmed that 95% or more of the cells were CD3-positive T cells, and the CD3-positive T cells were used as responding cells. The responding cells (1×10^5) and antigen-presenting cells (1×10^4) were co-cultured for 24 hours in a 200-μl medium in a round-bottom 96-well plate, and the IFN-γ concentration was measured by ELISA using the supernatant collected after co-culture. Unpulsed dendritic cells, DDX3X-pulsed dendritic cells, and OVA-pulsed dendritic cells were used as the antigen-presenting cells. In Table 3, “Yes” means that IFN-γ production from T cells was confirmed with significant difference only in a co-culture with the DDX3X-pulsed dendritic cells. In the table, “% Treg” and “% Teff” represent the proportions of the regulatory T cells and the effector T cells, respectively, with respect to the total number of CD4^+ T cells as determined by the FACS analysis of the mononulclear cell fraction immediately after isolation from the peripheral blood. CD62L^high CD25^+CD4^+ T cells and CD62L^low CD4^+ T cells were used as regulatory T cells (Treg) and effector T cells (Teff), respectively, in the FACS analysis, as reported in Koyama K, Kagamu H, et al. Reciprocal CD4^+ T-cell balance of effector CD62L^low CD4^+ and CD62L^high CD25^+ CD4^+ regulatory T cells in small cell lung cancer reflects disease stage. Clin Cancer Res. 2008; 14: 6770-9. Detection of DDX3X-responding T cells was not possible in any of the healthy individuals (HV), small cell lung cancer patients with distal metastasis (SCLC-ED), and cured small cell lung cancer patients. However, the experiment found the presence of DDX3X-responding, specific IFN-γ-producing T cells in 5 of 12 small cell lung cancer (SCLC-LD) patients with no distal metastasis.

[2] = tested on: CD62Llow CD4-positive or CD8-positive T cells; experiment: Cytokine ELISA (IFN-γ, IL-17) of CD62Llow lymph node T cells stimulated with antigen-loaded dendritic cells; assay type: cell-based, mice
Source text: T cells were stimulated with immobilized anti-CD3 monoclonal antibodies or antigen-pulsed BM-DCs in CM. Supernatants were harvested and assayed for IFN-γ, IL-4, and IL-17 content by a quantitative “sandwich” enzyme immunoassay using a murine IFN-γ, IL-4, and IL-17 ELISA kit (Genzyme), according to the manufacturer's protocol.
The inventors investigated whether T cells primed with synthesized DDX3X antigen could recognize CD133-positive melanoma cells.
The CD62L^low CD4-positive or CD8-positive T cells (1×10^5 cells) isolated from the lymph nodes were stimulated with 1×10^4 dendritic cells in 200 μl of complete medium (CM) for 48 hours in a 96-well plate. The dendritic cells used for stimulation were stimulated overnight with the same number of irradiated CD133-positive tumor cells or CD133-negative tumor cells (5,000 cGy), or synthesized DDX3X (5 μg/ml). The dendritic cells were purified with CD11c microbeads prior to co-culture.

[3] = T cells from lymph nodes draining DC pulsed with synthesized DDX3X, stimulated 48 hours with DC loaded with CD133-positive or CD133-negative tumor cells

B1: DEAD/H (Asp-Glu-Ala-Asp/His) box polypeptide 3, X-linked (protein, listed as Homo sapiens)
chain: MSHVAVENALGLDQQFAGLDLNSSDNQSGGSTASKGRYIPPHLRNREATKGFYDKDSSGWSSSKDKDAYSSFGSRSDSRGKSSFFSDRGSGSRGRFDDRGRSDYDGIGSRGDRSGFGKFERGGNSRWCDKSDEDDWSKPLPPSERLEQELFSGGNTGINFEKYDDIPVEATGNNCPPHIESFSDVEMGEIIMGNIELTRYTRPTPVQKHAIPIIKEKRDLMACAQTGSGKTAAFLLPILSQIYSDGPGEALRAMKENGRYGRRKQYPISLVLAPTRELAVQIYEEARKFSYRSRVRPCVVYGGADIGQQIRDLERGCHLLVATPGRLVDMMERGKIGLDFCKYLVLDEADRMLDMGFEPQIRRIVEQDTMPPKGVRHTMMFSATFPKEIQMLARDFLDEYIFLAVGRVGSTSENITQKVVWVEESDKRSFLLDLLNATGKDSLTLVFVETKKGADSLEDFLYHEGYACTSIHGDRSQRDREEALHQFRSGKSPILVATAVAARGLDISNVKHVINFDLPSDIEEYVHRIGRTGRVGNLGLATSFFNERNINITKDLLDLLVEAKQEVPSWLENMAYEHHYKGSSRGRSKSSRFSGGFGARDYRQSSGASSSSFSSSRASSSRSGGGGHGSSRGFGGGGYGGFYNSDGYGGNYNSQGVDWWGN
- DDX3X-specific T cell ([1]; Cured SCLC subjects): No
- DDX3X-specific T cell ([1]; HV (healthy individuals)): No
- DDX3X-specific T cell ([1]; SCLC-ED subjects): No
- DDX3X-specific T cell ([1]; SCLC-LD subjects): Yes and No
- detection of DDX3X-responding T cells ([1]; healthy individuals (HV), SCLC-ED and cured small cell lung cancer patients): not possible
- patients with DDX3X-responding, specific IFN-γ-producing T cells ([1]; small cell lung cancer (SCLC-LD) patients with no distal metastasis): 5 of 12
- IFN-γ and IL-17 secretion by DDX3X-specific CD4-positive T cells [2, 3]: secreted IFN-γ and IL-17 in a melanoma CSC-specific manner
- response of DDX3X-specific CD8-positive T cells [2, 3]: responded to both CD133-negative and CD133-positive melanoma cells
- cytokine production by melanoma CSC-specific CD4-positive T cells ([2]; T cells primed with vaccinated CD133-positive melanoma cells, stimulated with DC pulsed with synthesized DDX3X (5 μg/ml)): produced cytokines in a DDX3X-specific manner
- cytokine production upon DDX3X stimulation compared with stimulation with the melanoma CSC itself ([2]; melanoma CSC-specific CD4-positive T cells): produced even more cytokines
